According to US12723255B2, “Herbicide tolerance genes and methods of use thereof” (priority 2014, dated 2026):

Columns and labels:
F1 hybrid maize plants [1] = assay: efficacy field trial for quizalofop-P tolerance and clethodim sensitivity; assay type: in vivo; conditions: scale 0 to 100
Procedure: (§1) Separate trait efficacy field trials for quizalofop-P and 2,4-D were conducted at two locations cach with F1 hybrid transgenic plants produced by crossing an inbred plant containing maize event MON89034 with an R1 plant containing MON-HT55 (with a CTP), MON-HTI (with or without a CTP), MON-HT2 (with or without a CTP), MON-HT3 (with a CTP), MON-HT4 (with a CTP), MON-HT5 (with a CTP), MON-HT6 (with a CTP), or MON-HT7 (with a CTP). Transgenic F1 hybrid plants containing maize events NK603×MON89034 were used for comparison as a control.
In the efficacy field trial for quizalofop-P tolerance and clethodim sensitivity, one of four herbicide treatments was used: (1) quizalofop-P (Assure II) at 0.32 lb ai/acre (4×) plus 0.25% v/v non-ionic surfactant (NIS) applied at VE-V2 growth stage followed by the same at V4 growth stage followed by the same at V8 growth stage; (2) quizalofop-P at 0.64 lb ai/acre (8×) plus 0.25% v/v NIS applied at VE to V2 growth stage followed by the same at V4 growth stage followed by the same at V8 growth stage; (3) quizalofop-P at 1.28 lb ai/acre (16×) plus 0.25% v/v NIS applied at VE to V2 growth stage followed by the same at V4 growth stage followed by the same at V8growth stage; or (4) clethodim at 0.25 lb ai/acre (1×) plus 0.25% v/v NIS applied at V8 growth stage. Plots were visually rated 10-14 days after application for crop injury on a scale of 0 to 100with “0” being none and “100” being complete crop destruction. Tables 14 and 15 show the average injury ratings after herbicide application at V4 or V8 growth stage, respectively.

[2] = assay type: biochemical
Procedure: To analyze these engineered proteins for activity in higher temperatures, the in vitro enzyme assay in Example 1 was modified to specify pre-heating all of the assay components to the desired temperature for 5 minutes before combining the components and then maintaining the reaction at the desired temperature for the duration of the reaction. To normalize the assay measurements, quizalofop-P was used as the substrate for the reaction and enzyme activity was normalized based on the 25° C. readings. Using these parameters, the temperature at which the enzyme activity was half of maximum (T1/2) was calculated. The T1/2 for MON-HT55 was calculated to be 29° C., and the T1/2 for wild-type RdpA was calculated to be 38° C. (FIG. 2A).
Enzyme activity over a range of temperatures was analyzed in-depth for MON-HT1, MON-HT2, MON-HT7, and MON-HT8. These assays were conducted as described above. Quizalofop-P or 2,4-D was used as the substrate for these reactions and activity was normalized based on the activity of the wild-type enzyme at 25° C. The activity curves obtained are presented in FIG. 2B (with quizalofop-P as the substrate) and FIG. 2C (with 2,4-D as the substrate). Using quizalofop-P as the substrate, MON-HT55 was the most temperature sensitive, with a T1/2 of 29° C. […] MON-HTI was slightly less temperature sensitive, with a T1/2 about 1° C. higher than the wild-type enzyme.

F1 hybrid maize plants [3] = assay: efficacy field trial for 2,4-D tolerance; assay type: in vivo; conditions: scale 0 to 100, with CTP unless label says no CTP
Procedure: as §1
In the efficacy field trial for 2,4-D tolerance, one of four herbicide treatments was used: (1) 2,4-D amine at 2 lb ac/acre (2×) plus 0.25% v/v non-ionic surfactant (NIS) applied to VE to V2 followed by V4 followed by V8; (2) 2,4-D amine at 4 lb ac/acre (4×) plus 0.25% v/v NIS applied to VE to V2 followed by V4 followed by V8; (3) 2,4-D amine at 8 lb ac/acre (8×) plus 0.25% v/v NIS applied to VE to V2 followed by V4 followed by V8 maize; or (4) 2,4-D amine at 16 lb ac/acre (16×) plus 0.25% v/v NIS applied to VE to V2 followed by V4 followed by V8. Plots were visually rated as above. Tables 14 and 15 show the average injury ratings after herbicide application at V4 or V8 growth stage, respectively.

[4] = 0.32 lb ai/acre at VE-V2, V4, V8, with CTP unless label says no CTP
[5] = 0.64 lb ai/acre at VE-V2, V4, V8, with CTP unless label says no CTP
[6] = 1.28 lb ai/acre at VE-V2, V4, V8, with CTP unless label says no CTP

B1: MON-HT7: engineered oxygenase protein, amino acid sequence SEQ ID NO:34 (protein)
chain: MHAALTPLTNKYRFIDVQPLTGVLGAEITGVDLREPLDDSTWNEILDAFHTYQVIYFPGQAITNEQHIAFSRRFGPVDPVPLLKSIEGYPEVQMIRREANESGRVIGDDWHADSTFLDAPPAAVVMRAIEVPEYGGDTGFLSMYSAWETLSPTMQATIEGLNVVHSATKVFGSLYQATNWRFSNTSVKVMDVDAGDRETVHPLVVTHPVTGRRALYCNQVYCQKIQGMTDAESKSLLQFLYEHATKFDFTCRVRWKKDQVLVWDNLCTMHRSVPDYAGKFRYLTRTTVAGDKPSR
average injury rating, V4 Growth Stage, 4x Quizalofop (F1 hybrid maize plants [1]; [4]): 0.8 | average injury rating, V8 Growth Stage, 4x Quizalofop (F1 hybrid maize plants [1]; [4]): 1.5 | average injury rating, V4 Growth Stage, 8x Quizalofop (F1 hybrid maize plants [1]; [5]): 1.3 | average injury rating, V8 Growth Stage, 8x Quizalofop (F1 hybrid maize plants [1]; [5]): 0.8 | average injury rating, V4 Growth Stage, 16x Quizalofop (F1 hybrid maize plants [1]; [6]): 3.3 | average injury rating, V8 Growth Stage, 16x Quizalofop (F1 hybrid maize plants [1]; [6]): 5.5 | average injury rating, V8 Growth Stage, 1x Clethodim (F1 hybrid maize plants [1]; clethodim 0.25 lb ai/acre at V8, volunteer control): 93.3 | T1/2, temperature at which the enzyme activity was half of maximum [2]: 47 °C | temperature sensitivity compared with the wild-type enzyme ([2]; substrate 2,4-D, lower T1/2 than wild-type): slightly more temperature sensitive | average injury rating, V4 Growth Stage, 2x 2,4-D (F1 hybrid maize plants [3]; 2 lb ae/acre at VE-V2, V4, V8): 1.3 | average injury rating, V8 Growth Stage, 2x 2,4-D (F1 hybrid maize plants [3]; 2 lb ae/acre at VE-V2, V4, V8): 2.0 | average injury rating, V4 Growth Stage, 4x 2,4-D (F1 hybrid maize plants [3]; 4 lb ae/acre at VE-V2, V4, V8): 1.3 | average injury rating, V8 Growth Stage, 4x 2,4-D (F1 hybrid maize plants [3]; 4 lb ae/acre at VE-V2, V4, V8): 2.8 | average injury rating, V4 Growth Stage, 8x 2,4-D (F1 hybrid maize plants [3]; 8 lb ae/acre at VE-V2, V4, V8): 5.8 | average injury rating, V8 Growth Stage, 8x 2,4-D (F1 hybrid maize plants [3]; 8 lb ae/acre at VE-V2, V4, V8): 9.3 | average injury rating, V4 Growth Stage, 16x 2,4-D (F1 hybrid maize plants [3]; 16 lb ae/acre at VE-V2, V4, V8): 12.5 | average injury rating, V8 Growth Stage, 16x 2,4-D (F1 hybrid maize plants [3]; 16 lb ae/acre at VE-V2, V4, V8): 20.0
